Experimental data: patent US20090136516A1 (DUKE UNIVERSITY, published 2009)
Changes are numbered by the printed parent chain.

How the values were obtained:
human CD20 [1] = molecular target: T1, human CD20 (human, UniProt P11836 1-297); test: flow cytometry, human blood B cells, secondary antibody alone (background)
T1 construct: whole, on cells; also called cell surface CD20
T1 sequence (looked up): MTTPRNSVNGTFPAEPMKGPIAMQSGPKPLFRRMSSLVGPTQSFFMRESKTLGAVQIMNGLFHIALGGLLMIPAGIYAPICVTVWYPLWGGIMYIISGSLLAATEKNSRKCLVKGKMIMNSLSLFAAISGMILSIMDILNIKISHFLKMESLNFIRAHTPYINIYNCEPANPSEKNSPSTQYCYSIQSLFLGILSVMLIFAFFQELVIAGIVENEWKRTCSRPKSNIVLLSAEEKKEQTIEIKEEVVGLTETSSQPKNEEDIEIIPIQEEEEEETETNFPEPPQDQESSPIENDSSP

human CD20 [2] = molecular target: T1, human CD20; test: flow cytometry, BJAB cells, secondary antibody alone (background)
human CD20 [3] = molecular target: T1, human CD20; test: flow cytometry, Raji cells, secondary antibody alone (background)
human CD20 [4] = molecular target: T1, human CD20; test: flow cytometry, DHL-4 cells, secondary antibody alone (background)
human CD20 [5] = molecular target: T1, human CD20; test: indirect immunofluorescence, flow cytometry, BJAB cells, saturating mAb
Experimental: (§1) Reactivity of human blood lymphocytes and the Raji, BJAB or DHL-4 B lymphoblastoid cell lines with anti-CD20 monoclonal antibodies at saturating concentrations or with secondary antibody alone (control). The anti-CD20 monoclonal antibodies were used at concentrations that were determined to be saturating and that gave optimal staining. 1F5, B9E9 and 1H4 (IgG2a) monoclonal antibodies were used as ascites fluid diluted 1:200. HB20-3, -4 and -25 monoclonal antibodies were used as tissue culture supernatant fluid. B1 monoclonal antibody was used at either 10 μg/mL of purified monoclonal antibody or as tissue culture supernatant fluid. In all cases, monoclonal antibody staining was visualized using PE-conjugated isotype-specific secondary antibodies with flow cytometry analysis. Values represent the mean linear fluorescence intensity of staining for each B cell population as determined by flow cytometry analysis. Results are representative of those obtained in ≧3 experiments.

human CD20 [6] = molecular target: T1, human CD20; test: indirect immunofluorescence, flow cytometry, human blood B cells, saturating mAb
Experimental: as §1

human CD20 [7] = molecular target: T1, human CD20; test: indirect immunofluorescence, flow cytometry, Raji cells, saturating mAb
Experimental: as §1

human CD20 [8] = molecular target: T1, human CD20; test: indirect immunofluorescence, flow cytometry, DHL-4 cells, saturating mAb
Experimental: as §1

mouse CD20 [9] = molecular target: T2, mouse CD20 (mouse, UniProt P19437 1-291); test: flow cytometry, mouse spleen CD19+ B cells, control staining (background)
T2 construct: whole, on cells; Endogenous mouse CD20 on primary B cells; also called cell-surface CD20
T2 sequence (looked up): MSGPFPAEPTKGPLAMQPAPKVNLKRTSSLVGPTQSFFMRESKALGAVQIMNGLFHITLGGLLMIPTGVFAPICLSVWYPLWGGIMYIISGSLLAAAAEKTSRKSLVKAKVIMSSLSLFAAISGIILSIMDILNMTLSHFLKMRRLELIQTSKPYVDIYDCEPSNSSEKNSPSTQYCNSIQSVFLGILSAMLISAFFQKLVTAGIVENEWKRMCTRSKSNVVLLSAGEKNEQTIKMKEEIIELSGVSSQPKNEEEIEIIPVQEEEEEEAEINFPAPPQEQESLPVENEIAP

mouse CD20 (mouse) = molecular target: T3, mouse CD20 (mouse) (UniProt P19437); test: flow cytometry, mouse spleen CD19+ B cells, mAb at 0.5 µg/mL, isotype-specific secondary antibody
T3 sequence (looked up): T2 sequence (looked up)

mouse CD20 [10] = molecular target: T2, mouse CD20; test: as above
Experimental: Twelve mouse anti-mouse CD20 monoclonal antibodies, with representatives of each IgG isotype, were assessed for their ability to bind B cells and deplete them in vivo. Each monoclonal antibody reacted uniformly with CD19⁺ primary B cells in vitro with characteristic mean fluorescence intensities that were independent of monoclonal antibody isotype (FIG. 6A). When monoclonal antibody reactivity with primary B cells was assessed over a range of monoclonal antibody concentrations, most monoclonal antibodies reached saturating levels of staining when used at concentrations between 1-10 μg/mL (FIG. 6B). […] When all monoclonal antibodies were used at 0.5 μg/mL, each monoclonal antibody reacted uniformly with CD19⁺ primary B cells with characteristic low to high mean fluorescence intensities (FIG. 6C, Table 5). Similar results were obtained using a mouse CD20 cDNA-transfected pre-B cell line with anti-mouse Ig secondary antibody. Based on this analysis, the MB20-1 monoclonal antibody represented monoclonal antibodies with the lowest relative affinity/avidity, while the MB20-18 monoclonal antibody reacted strongly with B cells and stained B cells at the highest levels of all 12 anti-CD20 monoclonal antibodies (Table 5).

secondary antibody alone (control)
mean linear fluorescence intensity (mean linear fluorescence intensity) (human CD20 [1]): 1
mean linear fluorescence intensity (mean linear fluorescence intensity) (human CD20 [2]): 10
mean linear fluorescence intensity (mean linear fluorescence intensity) (human CD20 [3]): 3
mean linear fluorescence intensity (mean linear fluorescence intensity) (human CD20 [4]): 1

B1 anti-CD20 monoclonal antibody
mean linear fluorescence intensity (mean linear fluorescence intensity) (human CD20 [5]): 700
mean linear fluorescence intensity (mean linear fluorescence intensity) (human CD20 [6]): 277
mean linear fluorescence intensity (mean linear fluorescence intensity) (human CD20 [7]): 944
mean linear fluorescence intensity (mean linear fluorescence intensity) (human CD20 [8]): 486

isotype-matched control monoclonal antibodies (antibody)
B cell reactivity (mean linear fluorescence intensity) (mean linear fluorescence intensity) (mouse CD20 [9]): < 6

B1: 1F5 anti-CD20 monoclonal antibody (antibody, V domains shown)
VH: QVQLRQPGAELVKPGASVKMSCKASGYTFTSYNMHWVKQTPGQGLEWIGAIYPGNGDTSYNQKFKGKATLTADKSSSTAYMQLSSLTSEDSAVYYCARSHYGSNYVDYFDYWGQGTTLTVSS
VL: DIVLSQSPAILSASPGEKVTMTCRASSSLSFMHWYQQKPGSSPKPWIYATSNLASGVPARFSGSGSGTSYSLTISRVEAEDAATYFCHQWSSNPLTFGAGTKLELK
mean linear fluorescence intensity (human CD20 [5]): 386 mean linear fluorescence intensity
mean linear fluorescence intensity (human CD20 [6]): 104 mean linear fluorescence intensity
mean linear fluorescence intensity (human CD20 [7]): 455 mean linear fluorescence intensity
mean linear fluorescence intensity (human CD20 [8]): 169 mean linear fluorescence intensity

B2: B9E9 anti-CD20 monoclonal antibody (antibody, V domains shown)
VH: QVQLVQSGAELVKPGASVKMSCKASGYTFTSYNMHWVKQTPGQGLEWIGAIYPGNGDTSYNQKFKGKATLTADKSSSTAYMQLSSLTSEDSAVYYCARAQLRPNYWYFDVWGAGTTVTVSS
VL: B1 VL with L29V, F31Y, F86Y, H88Q, S91I, L95P
mean linear fluorescence intensity (human CD20 [5]): 377 mean linear fluorescence intensity
mean linear fluorescence intensity (human CD20 [6]): 112 mean linear fluorescence intensity
mean linear fluorescence intensity (human CD20 [7]): 438 mean linear fluorescence intensity
mean linear fluorescence intensity (human CD20 [8]): 162 mean linear fluorescence intensity

B3: 1H4 (IgG2a) anti-CD20 monoclonal antibody (antibody)
chain 1: QVQLQQPGAELVKPGASVKMSCKTSGYTFTSYNVHWVKQTPGQGLEWIGAIYPGNGDTSFNQKFKGKATLTADKSSSTVYMQLSSLTSEDSAVYYCARSNYYGSSYVWFFDVWGAGTTGTGSS
chain 2: B1 VL with D1Q, A9T, L29V, F31Y, H33D, F86Y, H88Q, S91I, L95P
mean linear fluorescence intensity (human CD20 [5]): 240 mean linear fluorescence intensity
mean linear fluorescence intensity (human CD20 [6]): 75 mean linear fluorescence intensity
mean linear fluorescence intensity (human CD20 [7]): 244 mean linear fluorescence intensity
mean linear fluorescence intensity (human CD20 [8]): 98 mean linear fluorescence intensity

B4: MB20-16 monoclonal antibody (antibody, part only; not given: light chain, V domains shown, part only)
VH: EVQLQESGPELVKPGASVKMSCKASGYTFTDYNLHWVKQSHGQSLEWIGYINPNNGGATYNQKFTGKATLTVNRSSSTAYMELRSLTSDDSAVYYCAEIYDGYYWGQGTTLTVSS
B cell reactivity (mean linear fluorescence intensity) (mean linear fluorescence intensity) (mouse CD20 (mouse)): 170

B5: MB20-1 monoclonal antibody (antibody, V domains shown)
VH: EVQLQESGGGLVQPGGSLKLSCAASGFTFSDYGMAWVRQAPRKGPEWVAFISNLAYSIYYADTVTGRFTISRENAKNTLYLEMSSLRSEDTAMYFCTRTGYYALDYWGQGTSVTVSS
VL: NIMMTQSPSSLAVSAGEKVTMRCKSSQSVLYSSKRKNYLAWYQQKPGKSPTLLIYWASTRESGVPDRFTGSGSGTDFTLTITSVQAEDLAVYYCHQYLSSFTFGGGTKLEIKR
notes: Mouse anti-mouse CD20 hybridoma antibody, IgG1; also called MB20-01
B cell reactivity (mean linear fluorescence intensity) (mouse CD20 [10]): 69 mean linear fluorescence intensity

B6: MB20-13 monoclonal antibody (antibody, V domains shown)
VH: B5 VH
VL: EIVLAQSPTTTAASPGEKITITCSASSSITSNYLHWYQQKPGFSPKLLIYRTSNLASGVPARFSGSGSGTSYSLTIGTMEAEDVATYYCQQGSSKTLTFGAGTKLELKR
notes: Mouse anti-mouse CD20 hybridoma antibody, IgG3
B cell reactivity (mean linear fluorescence intensity) (mouse CD20 [10]): 603 mean linear fluorescence intensity

B7: HB20-3 monoclonal antibody (antibody, V domains shown)
VH: EVQLQESGAELVKPGASVKMSCKASGFTFTNYNMHWLKQTPGQGLEWIGAIYPENGDTSYNQKFKGKATLTADKASSTAYMHLSSLTSEDSAVYFCARFYYYGSYYGAMDYWGQGTSVTVSS
VL: DIQMTQSPASLSASVGETVTITCRASGNIHNYLAWYQQKQGKSPQLLVYNAKTLADGVPSRFSGSGSGTQFSLKINSLQPEDFGSYYCQHFWSTPWTFGGGTKLEIKR
notes: Used as tissue culture supernatant; also called HB20-03; HB13c
mean linear fluorescence intensity (human CD20 [5]): 1200 mean linear fluorescence intensity
mean linear fluorescence intensity (human CD20 [6]): 469 mean linear fluorescence intensity
mean linear fluorescence intensity (human CD20 [7]): 2220 mean linear fluorescence intensity
mean linear fluorescence intensity (human CD20 [8]): 765 mean linear fluorescence intensity

B8: HB20-4 monoclonal antibody (antibody, V domains shown)
VH: B7 VH with L37V, K63R, A75S, S91T, M109L
VL: B7 VL with N28S, Q40L, T94I
notes: Used as tissue culture supernatant; also called HB20-04; HB13d
mean linear fluorescence intensity (human CD20 [5]): 1100 mean linear fluorescence intensity
mean linear fluorescence intensity (human CD20 [6]): 397 mean linear fluorescence intensity
mean linear fluorescence intensity (human CD20 [7]): 1580 mean linear fluorescence intensity
mean linear fluorescence intensity (human CD20 [8]): 578 mean linear fluorescence intensity

B9: HB20-25 monoclonal antibody (antibody, V domains shown)
VH: EVQLQESGAELVKPGASVKMSCKASGFRFTNYNLHWVKQTPGQGLEWIGAIYPGNGETSYNQKFKGKATLTADKSSSTAYMQLRSLTSGDSAVYYCARFYYYGSSYGAMDYWGQGTSVTVSS
VL: DIQMTQSPASLSVSVGETVTITCRASENIYSNLAWYQQKQGKSPQLLVYAATNLADGVPSRFSGSGSGTQYSLKINSLQSEDFGSYYCQHFWGIPWTFGGGTKLEIKR
notes: Used as tissue culture supernatant
mean linear fluorescence intensity (human CD20 [5]): 849 mean linear fluorescence intensity
mean linear fluorescence intensity (human CD20 [6]): 227 mean linear fluorescence intensity
mean linear fluorescence intensity (human CD20 [7]): 1350 mean linear fluorescence intensity
mean linear fluorescence intensity (human CD20 [8]): 514 mean linear fluorescence intensity

B10: MB20-18 monoclonal antibody (antibody, V domains shown)
VH: EVQLQESGLDLVKPGASVKISCKASGYTFTDYYMKWVKQSHGKSLDWIGDINPNNGDIIYNQKFEGKATLTVDKSSSTAYMELRSLTSEDSAVYYCARERFAYWGQGTLVTVSA
VL: SIVMTQTPKFLLVSTGDRVTITCKASQTVTNDLAWYQQKPGQSPKLLIYYASNRYTGVPDRFTGSGYGTDFTFTINTVQAEDLAVYFCQQDYSSPLTFGAGTKLELKR
notes: Mouse anti-mouse CD20 hybridoma antibody, IgG2b
B cell reactivity (mean linear fluorescence intensity) (mouse CD20 [10]): 729 mean linear fluorescence intensity

B11: MB20-8 monoclonal antibody (antibody, V domains shown)
VH: B10 VH with L9P
VL: B6 VL with A5T, T11M, A25V, S28N, T30R, E80K, K95I, T96P
notes: Mouse anti-mouse CD20 hybridoma antibody, IgG2b; also called MB20-08
B cell reactivity (mean linear fluorescence intensity) (mouse CD20 [10]): 240 mean linear fluorescence intensity

B12: MB20-14 monoclonal antibody (antibody, V domains shown)
VH: B10 VH with L9P, D10E, T28M, M34I, D46E, I58T, E65K, S77N, E82D, S85I
VL: B6 VL with A5T, T11M, A25V, T30R, I76V, G77A, K95I, T96P
notes: Mouse anti-mouse CD20 hybridoma antibody, IgG1
B cell reactivity (mean linear fluorescence intensity) (mouse CD20 [10]): 166 mean linear fluorescence intensity

B13: MB20-10 monoclonal antibody (antibody, V domains shown)
VH: B10 VH with L9P
VL: B6 VL with A5T, T11M, A25V, S28N, T30R, E80K, K95I, T96P
notes: as for B10
B cell reactivity (mean linear fluorescence intensity) (mouse CD20 [10]): 317 mean linear fluorescence intensity

B14: MB20-7 monoclonal antibody (antibody, V domains shown)
VH: B10 VH with L9P, T28M, D46E, I58T, I59T
VL: B6 VL with I2L, A5T, T11K, A25V, T30R, K40R, K95L, T96P
notes: Mouse anti-mouse CD20 hybridoma antibody, IgG2b; also called MB20-07
B cell reactivity (mean linear fluorescence intensity) (mouse CD20 [10]): 525 mean linear fluorescence intensity

B15: MB20-2 monoclonal antibody (antibody, V domains shown)
VH: B10 VH with L9P, D10E, T28M, M34I, D46E, I58T, E65K, S77N, E82D
VL: B6 VL with A5T, T11M, A25V, T30R, I76V, G77A, K95I, T96P
notes: Mouse anti-mouse CD20 hybridoma antibody, IgG1; also called MB20-02
B cell reactivity (mean linear fluorescence intensity) (mouse CD20 [10]): 209 mean linear fluorescence intensity
